This note sets out measurements from article PMC9262799, “The first step into phenolic metabolism in the hornwort Anthoceros agrestis: molecular and biochemical characterization of two phenylalanine ammonia-lyase isoforms” (Planta, 2022).

Common to all, as to type: biochemical, Anthoceros agrestis
For data set [1], the system named is T1, N[C@@H](Cc1ccc(O)cc1)C(=O)O.
T1 construct: full-length, 753 residues (81,704 Da), N-terminal 6xHis-tag kept (83,867 Da with tag), pET15b, E. coli SoluBL21, Ni-NTA; cDNA from suspension culture; PALs mostly homotetramers, oligomer not measured here
The experiment in a line: HPLC of 4-coumaric acid formed, Michaelis-Menten fit. The note with it: boric acid/sodium tetraborate buffer pH 8.8, 36 °C, 15 min, 0-9.6 mM Tyr. An excerpt:
HPLC of 4-coumaric acid formed, Michaelis-Menten fit on AaPAL2

For data set [2], the system named is T2, N[C@@H](Cc1ccccc1)C(=O)O.
T2 construct: full-length, 753 residues (81,704 Da), N-terminal 6xHis-tag kept (83,867 Da with tag), pET15b, E. coli SoluBL21, Ni-NTA; cDNA from suspension culture; PALs mostly homotetramers, oligomer not measured here
In words: HPLC of t-cinnamic acid formed, Michaelis-Menten fit. The note with it: boric acid/sodium tetraborate buffer pH 8.8, 36 °C, 4 min, 1-500 µM Phe. An excerpt:
HPLC of t-cinnamic acid formed, Michaelis-Menten fit on AaPAL2

Data set [3] concerns T3, N[C@@H](Cc1ccccc1)C(=O)O.
T3 construct: full-length, 752 residues (81,895 Da), N-terminal 6xHis-tag kept (84,058 Da with tag), pET15b, E. coli SoluBL21, Ni-NTA; cDNA from suspension culture; PALs mostly homotetramers, oligomer not measured here
The data set is described as above. The note with it: boric acid/sodium tetraborate buffer pH 8.8, 36 °C, 10 min, 1-500 µM Phe. An excerpt:
HPLC of t-cinnamic acid formed, Michaelis-Menten fit on AaPAL1

Data set [4] has as its system T4, N[C@@H](Cc1ccc(O)cc1)C(=O)O.
T4 construct: full-length, 752 residues (81,895 Da), N-terminal 6xHis-tag kept (84,058 Da with tag), pET15b, E. coli SoluBL21, Ni-NTA; cDNA from suspension culture; PALs mostly homotetramers, oligomer not measured here
The experiment in a line: HPLC of 4-coumaric acid formed, Michaelis-Menten fit. The conditions noted are these: boric acid/sodium tetraborate buffer pH 8.8, 36 °C, 10 min, 0-9.6 mM Tyr. The source says:
HPLC of 4-coumaric acid formed, Michaelis-Menten fit on AaPAL1

Sequence of AaPAL2 (Anthoceros agrestis) (chain, as listed by the source): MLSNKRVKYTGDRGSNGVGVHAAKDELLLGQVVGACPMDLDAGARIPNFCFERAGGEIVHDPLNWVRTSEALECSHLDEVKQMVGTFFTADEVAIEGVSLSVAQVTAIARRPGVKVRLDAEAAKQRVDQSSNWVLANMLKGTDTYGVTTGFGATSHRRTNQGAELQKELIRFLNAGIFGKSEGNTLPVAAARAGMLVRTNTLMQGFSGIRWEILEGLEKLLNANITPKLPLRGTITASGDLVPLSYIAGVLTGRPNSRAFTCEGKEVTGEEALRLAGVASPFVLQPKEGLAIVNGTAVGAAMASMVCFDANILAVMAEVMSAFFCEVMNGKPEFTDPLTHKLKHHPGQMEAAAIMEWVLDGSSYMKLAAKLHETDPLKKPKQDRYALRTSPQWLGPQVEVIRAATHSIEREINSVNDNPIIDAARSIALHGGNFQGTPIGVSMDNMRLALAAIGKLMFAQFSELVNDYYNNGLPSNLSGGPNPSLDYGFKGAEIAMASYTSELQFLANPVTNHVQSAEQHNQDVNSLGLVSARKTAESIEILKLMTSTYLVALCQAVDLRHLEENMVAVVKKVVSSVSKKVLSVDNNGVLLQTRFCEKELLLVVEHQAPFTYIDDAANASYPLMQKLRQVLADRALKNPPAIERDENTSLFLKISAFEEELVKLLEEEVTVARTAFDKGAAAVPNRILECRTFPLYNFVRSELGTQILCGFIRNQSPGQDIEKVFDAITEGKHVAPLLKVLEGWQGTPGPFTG
Sequence of AaPAL1 (Anthoceros agrestis) (chain, as listed by the source): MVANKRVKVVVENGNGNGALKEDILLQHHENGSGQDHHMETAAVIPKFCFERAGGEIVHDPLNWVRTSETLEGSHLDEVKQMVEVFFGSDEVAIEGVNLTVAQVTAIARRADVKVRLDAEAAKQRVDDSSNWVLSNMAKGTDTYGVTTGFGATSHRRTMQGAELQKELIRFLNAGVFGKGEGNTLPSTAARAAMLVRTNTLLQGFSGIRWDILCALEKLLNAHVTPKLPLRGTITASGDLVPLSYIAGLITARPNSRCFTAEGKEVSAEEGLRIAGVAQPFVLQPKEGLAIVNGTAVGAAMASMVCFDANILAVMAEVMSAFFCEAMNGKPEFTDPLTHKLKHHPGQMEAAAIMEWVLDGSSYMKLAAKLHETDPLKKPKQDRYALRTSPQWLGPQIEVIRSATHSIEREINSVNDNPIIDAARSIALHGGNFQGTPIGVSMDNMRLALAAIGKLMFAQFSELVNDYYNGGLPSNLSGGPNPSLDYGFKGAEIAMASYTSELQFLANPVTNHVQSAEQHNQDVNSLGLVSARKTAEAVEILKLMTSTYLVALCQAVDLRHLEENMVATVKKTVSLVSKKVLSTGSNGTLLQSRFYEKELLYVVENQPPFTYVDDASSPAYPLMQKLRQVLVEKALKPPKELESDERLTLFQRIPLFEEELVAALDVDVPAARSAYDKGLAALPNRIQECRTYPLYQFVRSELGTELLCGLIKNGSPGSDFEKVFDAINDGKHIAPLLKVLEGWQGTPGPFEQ

A word on the Km: it is the concentration of substrate that gives half-maximal velocity. The Vmax is the top rate of the reaction or transport when substrate is in excess. A word on the kcat: it is the number of substrate molecules converted per active site and unit of time at saturation. The kcat/Km is the second-order rate constant that governs catalysis at low substrate concentration. As to AaPAL2 (Anthoceros agrestis), in data set [1], the Michaelis constant (Km) came out at 3526 ± 617 µM, the Vmax turned out to be 0.0296 µmol/min/mg, the kcat was 0.041 s⁻¹ and the kcat/Km was determined as 11.6 M⁻¹ s⁻¹. Further, in the data set with N[C@@H](Cc1ccccc1)C(=O)O [2], the Michaelis constant (Km) came to 18 ± 4 µM, the Vmax was 0.206 µmol/min/mg, the turnover number (kcat) is 0.288 s⁻¹ and the kcat/Km turned out to be 16000 M⁻¹ s⁻¹.

For the substance AaPAL1 (Anthoceros agrestis), in the data set on N[C@@H](Cc1ccccc1)C(=O)O [3], the Km is 39 ± 15 µM, the Vmax amounted to 0.252 µmol/min/mg, the kcat stood at 0.353 s⁻¹ and the kcat/Km amounted to 9050 M⁻¹ s⁻¹. Moreover, in data set [4], the Michaelis-Menten constant (Km) came to 3308 ± 987 µM, the Vmax stood at 0.058 µmol/min/mg, the kcat came out at 0.081 s⁻¹ and the kcat/Km was 24.5 M⁻¹ s⁻¹.
